# From US10815297B2, “Antagonists of IL17C for the treatment of inflammatory disorders” (MorphoSys AG, priority 2011, dated 2020)
# B1: MOR12743: anti-mouse IL17C HuCAL antibody; CDRs SEQ ID NO: 31-36, VL 37, VH 38; human/mouse chimeric IgG2a (antibody, V domains shown)
# VH: QVQLVQSGAEVKKPGASVKVSCKASGYTFTSNFIHWVRQAPGQGLEWMGWISPYNGDTNYAQKFQGRVTMTRDTSISTAYMELSRLRSEDTAVYYCARESVYYGSDYGYNGMDIWGQGTLVTVSS
# VL: DIELTQPPSVSVSPGQTASITCSGDNLGEEYVSWYQQKPGQAPVLVIYDDTKRPSGIPERFSGSNSGNTATLTISGTQAEDEADYYCASWDLWSVEVFGGGTKLTVLGQ
# modifications: mouse IgG2a constant regions; VH; VL
# Assays:
# [1] = tested on: Balb/c N mice, IMQ induced psoriasis; assay: Imiquimod (IMQ) psoriasis-like mouse model; assay type: in vivo; conditions: 10 mg/kg i.p., 3 days before and at D0
# Text: The pro-inflammatory function of IL17C in the skin was examined in a non-infectious cutaneous inflammation mouse model of psoriasis where topical TLR7-TLR8 agonist Imiquimod induces psoriatic skin lesions characterized by epidermal proliferation and leukocyte infiltration, which are dependent on pathogenic TH17 cytokines (Van der Fits et al., J of Immunol. 2009 May 1; 182(9):5836-45.). The role of IL17C in this particular model was recently documented (Ramirez-Carrozzi et al, Nat Immunol. 2011 12(12):1159-66) and a convincing genetic proof of the IL17C role in the disease model was provided with IL17C^−/− mice. […]
# In order to induce a psoriatic-like response, a daily topical dose of 62.5 mg of Imiquimod cream on the shaved back and the right ear for 5 consecutive days (D0-D4), translating in a daily dose of 3.13 mg of the active compound. The control group was constituted with mice receiving the same quantity of Vaseline cream. […] Body weight was daily recorded. At necropsy and at the days indicated, the ears and the back skin thicknesses were measured using a micrometer (Mitutoyo). […] Spleen and thymus weight was measured.
# Mice were randomly divided into equal groups (n=10). […] The control group was constituted with control mice receiving the same quantity of Vaseline. […]
# [2] = tested on: mouse CIA model (DBA1/J mice); assay: Mouse collagen induced arthritis (CIA) model, therapeutic protocol; assay type: in vivo; conditions: 10 mg/kg, 3x week, i.p., day 31 to day 46
# Procedure: DBA1/J mice (male, 6-7 weeks old, approx 20 gram) were obtained from Centre d'Elevage Regional Janvier (Laval, France). Mice were kept on a 12 hr light/dark cycle (0700-1900). Temperature was maintained at 22° C., and food and water were provided ad libitum.
# One day before the experiment, CII solution (2 mg/mL) was prepared with 0.05 M acetic acid and stored at 4° C. Just before the immunization, equal volumes of adjuvant […] and CII were mixed by a homogenizer in a pre-cooled glass bottle in an ice water bath. Extra adjuvant and prolonged homogenization may be required if an emulsion is not formed. 0.1 mL of the emulsion was injected intradermally at the base of the tail of each mouse on day 1, a second booster intradermal injection (CII solution at 2 mg/mL in […] 0.1 mLemulsion) was performed on day 21. This immunization method was modified from published methods (Brand et al, 2007, Collagen-induced arthritis. Nature Protocols; vol 2 (5): 1269-1275; Lin et al., 2007, Anti-rheumatic activities of histone deacetylase (HDAC) inhibitors in vivo in collagen-induced arthritis in rodents. Br J Pharmacol. April; 150 (7):829-31).
# The therapeutic effects of the antibodies were tested in the mouse CIA model. Mice were randomly divided into equal groups and each group contained 10 mice. All mice were immunized on day 1 and boosted on day 21. Therapeutic dosing lasted from day 31 to day 46. The negative control group was treated with vehicle (PBS) and the positive control group with Enbrel (10 mg/kg, 3× week, i.p.). An antibody of interest was tested at 10 mg/kg, i.p. 3 times per week.
# Anti-IL17C antibodies were administered i.p. three times a week at 10 mg/kg. […]
# Arthritis was scored according to the method of Khachigian 2006 (Collagen antibody-induced arthritis. (2006) Nature Protocols 1, 2512-6), Lin et al 2007 (supra); Nishida et al. 2004 (Histone deacetylase inhibitor suppression of autoantibody-mediated arthritis in mice via regulation of p16INK4a and p21(WAF1/Cip1) expression. Arthritis Rheum. 10: 3365-76); and Brand et al. 2007 (supra). […]
molecule,measurement,setting,value
B1,effect on epidermal thickness induced by IMQ in the mouse ear skin (histology),[1],significant
same,inhibition of inflammation / disease progression (clinical score),[2],significant inhibition
